# Results from US20190134153A1, “IMMUNOMODULATORY EFFECT OF INHALED KINASE INHIBITOR PEPTIDES IN LUNG” (MOERAE MATRIX, INC., priority 2017, published 2019).
# How the values were obtained:
# Test in all cases: Kinase Profiling Assay
# Format in all cases: biochemical
# Conditions in all cases: 100 μM
# [1] = target: CDK9/cyclin T1(h) (Homo sapiens, UniProt P50750)
# [2] = target: T1, BrSK1(h) (Homo sapiens, UniProt Q8TDC3)
# T1 sequence (Q8TDC3 1-778): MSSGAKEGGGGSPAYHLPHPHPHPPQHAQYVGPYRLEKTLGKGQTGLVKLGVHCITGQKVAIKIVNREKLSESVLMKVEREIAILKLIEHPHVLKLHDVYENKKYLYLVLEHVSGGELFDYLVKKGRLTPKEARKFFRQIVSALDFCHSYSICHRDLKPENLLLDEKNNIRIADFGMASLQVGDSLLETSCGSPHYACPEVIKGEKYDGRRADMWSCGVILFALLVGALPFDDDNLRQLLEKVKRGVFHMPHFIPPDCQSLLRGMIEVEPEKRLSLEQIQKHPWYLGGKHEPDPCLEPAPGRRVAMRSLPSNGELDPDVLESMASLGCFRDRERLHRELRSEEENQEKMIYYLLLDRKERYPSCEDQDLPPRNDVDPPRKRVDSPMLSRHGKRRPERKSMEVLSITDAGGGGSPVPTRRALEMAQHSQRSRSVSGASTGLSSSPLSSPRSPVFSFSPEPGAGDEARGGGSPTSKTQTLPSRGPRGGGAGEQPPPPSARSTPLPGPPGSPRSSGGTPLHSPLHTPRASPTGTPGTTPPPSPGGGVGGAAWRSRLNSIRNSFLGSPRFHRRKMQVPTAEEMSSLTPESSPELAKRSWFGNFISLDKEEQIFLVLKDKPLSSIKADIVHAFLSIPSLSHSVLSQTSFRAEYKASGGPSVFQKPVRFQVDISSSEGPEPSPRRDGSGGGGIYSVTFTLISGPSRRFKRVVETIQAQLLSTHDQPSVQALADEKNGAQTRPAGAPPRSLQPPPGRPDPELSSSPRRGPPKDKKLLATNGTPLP
# [3] = target: Fms(h) (Homo sapiens, UniProt P07333)
# [4] = target: T2, PrKX(h) (Homo sapiens, UniProt P51817)
# T2 sequence (P51817 1-358): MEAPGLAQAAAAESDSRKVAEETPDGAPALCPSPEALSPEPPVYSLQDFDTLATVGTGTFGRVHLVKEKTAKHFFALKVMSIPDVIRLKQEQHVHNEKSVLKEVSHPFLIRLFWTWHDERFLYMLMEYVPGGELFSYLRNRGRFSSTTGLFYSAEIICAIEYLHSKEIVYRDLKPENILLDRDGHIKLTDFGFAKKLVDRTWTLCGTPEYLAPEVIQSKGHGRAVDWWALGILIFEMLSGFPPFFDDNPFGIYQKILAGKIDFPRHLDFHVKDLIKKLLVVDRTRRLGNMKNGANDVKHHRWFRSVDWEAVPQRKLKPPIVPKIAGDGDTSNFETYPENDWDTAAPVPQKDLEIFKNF
# [5] = target: eEF-2K(h) (Homo sapiens, UniProt O00418)
# [6] = target: Hck(h) (Homo sapiens, UniProt P08631)
# [7] = target: T3, EphB4(h) (Homo sapiens, UniProt P54760)
# T3 sequence (P54760 16-987): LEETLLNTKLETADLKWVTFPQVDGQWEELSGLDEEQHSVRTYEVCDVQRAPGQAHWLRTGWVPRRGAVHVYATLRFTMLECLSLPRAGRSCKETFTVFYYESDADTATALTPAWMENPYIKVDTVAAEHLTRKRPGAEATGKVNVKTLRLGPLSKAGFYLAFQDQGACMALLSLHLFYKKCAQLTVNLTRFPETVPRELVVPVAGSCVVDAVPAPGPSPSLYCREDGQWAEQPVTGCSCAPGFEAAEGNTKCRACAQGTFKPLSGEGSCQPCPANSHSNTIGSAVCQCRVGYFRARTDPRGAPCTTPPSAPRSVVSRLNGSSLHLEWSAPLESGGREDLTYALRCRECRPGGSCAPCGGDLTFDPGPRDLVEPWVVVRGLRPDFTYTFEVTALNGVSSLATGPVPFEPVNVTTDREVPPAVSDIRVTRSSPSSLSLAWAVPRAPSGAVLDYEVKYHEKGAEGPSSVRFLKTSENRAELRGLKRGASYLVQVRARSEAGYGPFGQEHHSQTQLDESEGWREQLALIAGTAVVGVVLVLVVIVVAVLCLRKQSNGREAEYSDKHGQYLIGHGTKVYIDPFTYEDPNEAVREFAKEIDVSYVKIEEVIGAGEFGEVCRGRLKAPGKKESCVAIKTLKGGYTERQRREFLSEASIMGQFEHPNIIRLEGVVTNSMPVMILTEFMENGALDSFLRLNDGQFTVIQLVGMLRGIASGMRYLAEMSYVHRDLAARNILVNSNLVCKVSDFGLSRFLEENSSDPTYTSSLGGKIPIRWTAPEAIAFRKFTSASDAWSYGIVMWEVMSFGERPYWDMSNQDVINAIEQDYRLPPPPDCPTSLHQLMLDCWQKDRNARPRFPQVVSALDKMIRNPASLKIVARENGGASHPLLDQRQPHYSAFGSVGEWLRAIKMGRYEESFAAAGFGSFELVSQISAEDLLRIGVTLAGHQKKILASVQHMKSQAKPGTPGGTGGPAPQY
# [8] = target: KDR(h) (Homo sapiens, UniProt P35968)
# [9] = target: IRR(h) (Homo sapiens, UniProt P14616)
# [10] = target: IGF-1R(h), activated (Homo sapiens, UniProt P08069)
# [11] = target: RIPK2(h) (Homo sapiens, UniProt O43353)
# [12] = target: GSK3β(h) (Homo sapiens, UniProt P49841)
# [13] = target: EphA7(h) (Homo sapiens, UniProt Q15375)
# EphA7(h), sequence (Q15375 28-998): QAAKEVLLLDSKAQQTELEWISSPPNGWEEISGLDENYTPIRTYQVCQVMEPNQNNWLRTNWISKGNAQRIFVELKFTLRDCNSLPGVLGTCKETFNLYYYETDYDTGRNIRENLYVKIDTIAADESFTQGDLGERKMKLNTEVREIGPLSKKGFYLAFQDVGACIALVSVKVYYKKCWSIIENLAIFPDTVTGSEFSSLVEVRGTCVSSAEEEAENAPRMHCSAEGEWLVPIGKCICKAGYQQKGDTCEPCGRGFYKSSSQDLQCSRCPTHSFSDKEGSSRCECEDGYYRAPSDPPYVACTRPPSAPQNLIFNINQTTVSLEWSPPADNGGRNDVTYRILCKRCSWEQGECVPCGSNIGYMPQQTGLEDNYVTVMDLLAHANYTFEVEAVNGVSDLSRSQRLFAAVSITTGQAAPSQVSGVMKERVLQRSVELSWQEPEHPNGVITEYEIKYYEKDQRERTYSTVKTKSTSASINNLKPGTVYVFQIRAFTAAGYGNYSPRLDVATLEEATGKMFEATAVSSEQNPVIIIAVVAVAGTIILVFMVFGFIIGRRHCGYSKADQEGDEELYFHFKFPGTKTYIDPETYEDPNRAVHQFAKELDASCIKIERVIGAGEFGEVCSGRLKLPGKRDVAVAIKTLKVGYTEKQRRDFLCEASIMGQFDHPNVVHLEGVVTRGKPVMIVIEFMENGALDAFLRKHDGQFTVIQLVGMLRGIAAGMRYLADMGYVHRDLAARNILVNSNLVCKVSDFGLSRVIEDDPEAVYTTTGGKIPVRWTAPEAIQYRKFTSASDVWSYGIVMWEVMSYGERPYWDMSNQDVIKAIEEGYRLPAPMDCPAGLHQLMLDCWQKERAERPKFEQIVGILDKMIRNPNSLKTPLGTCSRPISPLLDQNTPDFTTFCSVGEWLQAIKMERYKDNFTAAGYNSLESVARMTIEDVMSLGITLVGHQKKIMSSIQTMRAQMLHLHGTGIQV
# CDK9/cyclin T1(h), sequence (P50750 whole entry): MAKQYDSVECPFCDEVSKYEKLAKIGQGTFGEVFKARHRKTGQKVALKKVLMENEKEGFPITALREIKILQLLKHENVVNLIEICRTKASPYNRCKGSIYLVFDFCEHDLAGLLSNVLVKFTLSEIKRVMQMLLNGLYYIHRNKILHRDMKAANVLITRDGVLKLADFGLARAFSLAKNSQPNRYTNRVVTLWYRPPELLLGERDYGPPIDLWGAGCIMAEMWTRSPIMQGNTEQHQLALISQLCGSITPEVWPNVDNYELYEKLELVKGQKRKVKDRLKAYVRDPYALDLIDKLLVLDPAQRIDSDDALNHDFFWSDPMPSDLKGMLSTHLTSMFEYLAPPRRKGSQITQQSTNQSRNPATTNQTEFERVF
# CDK9/cyclin T1(h), sequence (O60563 whole entry partner): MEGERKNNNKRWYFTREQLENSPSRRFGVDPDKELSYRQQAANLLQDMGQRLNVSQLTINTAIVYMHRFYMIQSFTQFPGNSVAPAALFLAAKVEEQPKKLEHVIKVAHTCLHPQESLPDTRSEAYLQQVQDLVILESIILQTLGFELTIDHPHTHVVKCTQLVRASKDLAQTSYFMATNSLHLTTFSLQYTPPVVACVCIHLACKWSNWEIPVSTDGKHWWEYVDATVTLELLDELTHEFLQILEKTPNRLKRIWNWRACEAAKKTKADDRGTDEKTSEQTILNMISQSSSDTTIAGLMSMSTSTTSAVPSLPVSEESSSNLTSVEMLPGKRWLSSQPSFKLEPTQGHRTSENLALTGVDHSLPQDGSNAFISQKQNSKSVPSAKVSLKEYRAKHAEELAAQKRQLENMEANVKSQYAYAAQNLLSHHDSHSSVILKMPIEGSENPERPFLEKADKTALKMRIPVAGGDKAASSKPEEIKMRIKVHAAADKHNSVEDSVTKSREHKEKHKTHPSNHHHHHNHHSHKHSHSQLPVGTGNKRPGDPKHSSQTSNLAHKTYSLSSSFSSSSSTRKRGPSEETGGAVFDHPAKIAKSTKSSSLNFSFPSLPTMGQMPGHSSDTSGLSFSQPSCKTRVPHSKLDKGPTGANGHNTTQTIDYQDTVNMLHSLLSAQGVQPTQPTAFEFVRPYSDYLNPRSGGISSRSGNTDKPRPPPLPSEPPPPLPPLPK
# RIPK2(h), sequence (O43353 whole entry): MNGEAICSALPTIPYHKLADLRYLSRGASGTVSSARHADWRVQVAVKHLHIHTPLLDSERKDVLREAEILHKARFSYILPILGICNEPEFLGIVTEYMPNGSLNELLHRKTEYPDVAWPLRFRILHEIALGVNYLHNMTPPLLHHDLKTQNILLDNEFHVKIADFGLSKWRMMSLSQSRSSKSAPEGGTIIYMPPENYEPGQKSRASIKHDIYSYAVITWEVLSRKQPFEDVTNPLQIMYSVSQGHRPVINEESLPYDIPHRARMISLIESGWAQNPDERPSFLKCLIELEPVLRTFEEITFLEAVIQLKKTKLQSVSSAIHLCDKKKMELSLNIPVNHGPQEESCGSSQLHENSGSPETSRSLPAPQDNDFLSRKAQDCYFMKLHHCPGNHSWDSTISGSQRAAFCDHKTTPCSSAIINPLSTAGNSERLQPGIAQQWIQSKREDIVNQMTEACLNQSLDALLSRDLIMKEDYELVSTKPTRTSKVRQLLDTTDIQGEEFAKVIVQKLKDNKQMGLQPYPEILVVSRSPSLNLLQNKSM
# GSK3β(h), sequence (P49841 whole entry): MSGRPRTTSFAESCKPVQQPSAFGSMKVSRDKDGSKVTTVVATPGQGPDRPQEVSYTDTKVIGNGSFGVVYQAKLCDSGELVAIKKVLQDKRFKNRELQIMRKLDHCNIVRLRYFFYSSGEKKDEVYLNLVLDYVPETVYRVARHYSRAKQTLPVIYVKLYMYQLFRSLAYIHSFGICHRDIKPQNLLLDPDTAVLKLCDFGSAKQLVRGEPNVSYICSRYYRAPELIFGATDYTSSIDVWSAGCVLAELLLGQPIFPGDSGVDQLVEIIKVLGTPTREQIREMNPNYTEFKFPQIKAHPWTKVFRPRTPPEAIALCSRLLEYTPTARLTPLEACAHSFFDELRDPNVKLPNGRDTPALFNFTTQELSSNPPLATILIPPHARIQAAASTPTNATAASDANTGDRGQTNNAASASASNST
# Hck(h), sequence (P08631 whole entry): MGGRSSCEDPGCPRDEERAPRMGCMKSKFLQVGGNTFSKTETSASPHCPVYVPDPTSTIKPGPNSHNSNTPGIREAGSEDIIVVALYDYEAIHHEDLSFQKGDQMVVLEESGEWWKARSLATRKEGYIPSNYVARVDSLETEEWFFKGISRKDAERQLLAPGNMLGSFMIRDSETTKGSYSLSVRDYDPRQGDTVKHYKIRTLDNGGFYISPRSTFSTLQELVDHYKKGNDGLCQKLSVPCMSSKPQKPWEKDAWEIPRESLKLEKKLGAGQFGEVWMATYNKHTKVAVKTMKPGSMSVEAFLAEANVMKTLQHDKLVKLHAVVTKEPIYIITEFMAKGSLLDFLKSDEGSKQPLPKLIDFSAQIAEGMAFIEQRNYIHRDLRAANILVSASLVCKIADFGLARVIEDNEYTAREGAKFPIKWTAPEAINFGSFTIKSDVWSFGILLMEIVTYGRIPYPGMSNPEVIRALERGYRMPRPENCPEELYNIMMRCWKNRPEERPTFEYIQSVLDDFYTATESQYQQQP
# IRR(h), sequence (P14616 27-1297): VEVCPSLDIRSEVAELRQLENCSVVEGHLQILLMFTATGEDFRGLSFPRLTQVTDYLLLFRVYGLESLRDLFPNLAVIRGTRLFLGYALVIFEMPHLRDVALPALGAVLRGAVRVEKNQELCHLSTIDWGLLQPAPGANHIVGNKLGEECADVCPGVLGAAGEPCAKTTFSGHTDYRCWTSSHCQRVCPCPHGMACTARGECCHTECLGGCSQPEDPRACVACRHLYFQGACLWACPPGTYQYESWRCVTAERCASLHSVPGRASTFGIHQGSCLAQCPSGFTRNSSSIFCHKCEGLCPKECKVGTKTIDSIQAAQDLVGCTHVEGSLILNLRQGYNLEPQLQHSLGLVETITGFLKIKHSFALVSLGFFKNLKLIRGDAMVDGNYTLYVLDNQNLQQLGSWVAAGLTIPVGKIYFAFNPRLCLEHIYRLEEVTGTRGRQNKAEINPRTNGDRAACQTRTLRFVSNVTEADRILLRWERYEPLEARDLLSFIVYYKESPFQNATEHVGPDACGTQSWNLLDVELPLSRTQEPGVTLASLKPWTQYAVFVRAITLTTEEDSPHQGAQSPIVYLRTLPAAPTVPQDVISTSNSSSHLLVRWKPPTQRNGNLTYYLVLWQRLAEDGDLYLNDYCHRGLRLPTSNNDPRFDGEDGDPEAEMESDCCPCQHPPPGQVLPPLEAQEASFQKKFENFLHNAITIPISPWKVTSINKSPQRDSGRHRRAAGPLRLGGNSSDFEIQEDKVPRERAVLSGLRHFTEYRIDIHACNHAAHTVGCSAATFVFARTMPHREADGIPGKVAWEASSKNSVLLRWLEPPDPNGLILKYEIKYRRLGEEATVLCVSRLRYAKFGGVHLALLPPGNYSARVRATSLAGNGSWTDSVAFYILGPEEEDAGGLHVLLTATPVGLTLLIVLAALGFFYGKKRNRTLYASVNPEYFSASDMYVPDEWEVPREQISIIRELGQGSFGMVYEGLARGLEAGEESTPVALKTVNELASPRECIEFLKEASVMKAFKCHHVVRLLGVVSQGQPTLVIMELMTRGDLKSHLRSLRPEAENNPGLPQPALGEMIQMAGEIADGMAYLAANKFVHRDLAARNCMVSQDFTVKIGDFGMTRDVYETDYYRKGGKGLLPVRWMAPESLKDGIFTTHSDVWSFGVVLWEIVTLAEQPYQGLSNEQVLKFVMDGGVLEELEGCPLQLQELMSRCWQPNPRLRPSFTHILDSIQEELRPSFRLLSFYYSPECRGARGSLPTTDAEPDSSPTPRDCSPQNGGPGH
Sequence,% activity [1],% activity [2],% activity [3],% activity [4],% activity [5],% activity [6],% activity [7],% activity [8],% activity [9],% activity [10],% activity [11],% activity [12],% activity [13]
HRRIKAWLKKIKALARQLGVAA [MMI-0500],6%,72%,14%,57%,43%,78%,38%,15%,10%,45%,30%,238%,189%
YARAAARQARAKALNRQLGVA [MMI-0200],–,93%,92%,–,–,–,131%,110%,69%,94%,98%,132%,220%
KAFAKLAARLYRKALARQLGVAA [MMI-0400],235%,76%,37%,76%,43%,72%,28%,94%,8%,77%,98%,202%,222%
FAKLAARLYRKALARQLGVAA [MMI-0300],91%,67%,45%,61%,91%,72%,44%,101%,8%,80%,97%,205%,159%
